Experimental findings from the PETadex activity labels (doi:10.1074/jbc.m109.041285) are described below.

Substrate in the data set: Acd (paper fig)
Particulars: 30 °C.

Changes are numbered by the printed parent chain.

B1: unnamed (protein)
chain: MSKVDLWQDATAQAELVRSGEISRTELLEATIAHVQAVNPEINAVIIPLFEKARRESELASGPFAGVPYLLKDLTVVSQGDINTSSIKGMKESGYRADHDAYFVQRMRAAGFVLLGKTNTPEMGNQVTTEPEAWGATRNPWNLGRSVGGSSGGSGAAVAAALSPVAHGNDAAGSVRIPASVCGVVGLKPTRGRISPGPLVTDSDNVAGAAHEGLFARSVRDIAALLDVVSGHRPGDTFCAPTASRPYAQGISENPGSLRVGVLTHNPVGDFALDPECAAAARGAAAALAALGHDVNDAYPEALGDRSFLKDYSTIGDVAIAREIERNGELIGRPLTEDDVEWTSWEMVKRADQVTGRAFAACVDELRYYAGKVERWWEAGWDLLILPTVTRQTPEIGELMLAKGTDLEGRQSAFISGSLQMLAFTVPFNVSGQPAISLPIGMSSDGMPIGVQIVAAYGREDLLLQVAAQLEGALPWVARRPQLLNPSRKIPAA
As usually defined, the Km is the substrate concentration at which the rate is half of its maximum. In general, kcat refers to the number of substrate molecules converted per active site and unit of time at saturation. Broadly, the kcat/Km is the second-order rate constant that governs catalysis at low substrate concentration. In the case of B1, the Km amounted to 3.66 mM, the turnover number (kcat) was found to be 9.15 s⁻¹ and the kcat/Km amounted to 2500 M⁻¹ s⁻¹.

B2: unnamed (protein)
chain: B1 chain with G316S
In the case of B2, the Km turned out to be 1.8 mM, the catalytic constant (kcat) is 4.83 s⁻¹ and the kcat/Km stood at 2680 M⁻¹ s⁻¹.

B3: unnamed (protein)
chain: B1 chain with G316D
Regarding B3, the Km is 19 mM, the kcat stood at 0.14 s⁻¹ and the catalytic efficiency (kcat/Km) was found to be 7.37 M⁻¹ s⁻¹.

B4: unnamed (protein)
chain: B1 chain with G316A
Consider B4, for which the Km turned out to be 0.85 mM, the kcat turned out to be 0.71 s⁻¹ and the kcat/Km amounted to 835 M⁻¹ s⁻¹.

B5: unnamed (protein)
chain: B1 chain with G316C
As for B5, the Km turned out to be 3.51 mM, the kcat was 4.97 s⁻¹ and the kcat/Km is 1420 M⁻¹ s⁻¹.

B6: unnamed (protein)
chain: B1 chain with N125A, G316C
For B6, the Km was determined as 13.2 mM, the kcat came to 1.12 s⁻¹ and the kcat/Km is 84.8 M⁻¹ s⁻¹.
